The results in this text go back to patent publication US20170224778A1, “COMPOSITIONS AND METHODS THAT TARGET REGULATION OF BREATHING” (The Board of Trustees of the Leland Stanford Junior …, priority 2016, published 2017).

Assay [1] addresses neuromedin B receptor (NMBR) on rat preBotC neurons (rat) (UniProt P24053).
In assay [2] the target is gastrin-releasing peptide receptor (GRPR) on rat preBotC neurons (rat) (UniProt P52500).
In assay [3] the target is neuromedin B receptor (NMBR) on rat preBotC neurons (rat) (UniProt P24053). The source holds these as a separate data set.
Assay [4] deals with gastrin-releasing peptide receptor (GRPR) on rat preBotC neurons (rat) (UniProt P52500). The source holds these as a separate data set.
Assay [5] concerns the target neuromedin B receptor (NMBR) on rat preBotC neurons (rat) (UniProt P24053). The source holds these as a separate data set.
The target of assay [6] is gastrin-releasing peptide receptor (GRPR) on mouse preBotC neurons (mouse) (UniProt P21729).
Assay [7] has as its target T1, NMBR (Rattus norvegicus, UniProt P24053).
T1 construct: from tissue; host or cells: preBötC of the ventral medulla of living anesthetized Sprague Dawley rats
T1 sequence (P24053 1-390): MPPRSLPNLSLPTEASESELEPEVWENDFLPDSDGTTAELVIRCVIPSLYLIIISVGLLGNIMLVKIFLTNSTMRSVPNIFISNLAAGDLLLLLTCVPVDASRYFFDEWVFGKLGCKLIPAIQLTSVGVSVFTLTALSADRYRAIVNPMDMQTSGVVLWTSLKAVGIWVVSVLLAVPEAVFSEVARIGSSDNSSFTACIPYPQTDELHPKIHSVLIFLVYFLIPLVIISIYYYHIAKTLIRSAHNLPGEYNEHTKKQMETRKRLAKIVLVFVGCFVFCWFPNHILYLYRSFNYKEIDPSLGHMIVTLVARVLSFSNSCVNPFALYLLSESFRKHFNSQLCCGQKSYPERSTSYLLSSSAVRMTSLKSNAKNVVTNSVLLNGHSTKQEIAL
The assay is described as follows: Sighing and breathing of urethane-anesthetized rats after bilateral preBötC injection (NMB pathway). Format: in vivo. The following applies: 3 μM into preBötC. As for the experimental part:
Sigh monitoring and analysis. For awake animals, individual animals were placed in a whole body plethysmography chamber (Buxco) at room temperature (22° C.) in 21% O2 (for normoxia) or 8% O2 (for hypoxic challenge) balanced with N2. Sighs were identified in plethysmography traces by the characteristic biphasic ramp, the augmented flow in the second phase of the inspiratory effort and the prolongation of expiratory time following the event. Sighs were also confirmed by visual monitoring of breathing behavior. Given the high amplitude and distinctive waveform of sighs relative to standard eupneic breaths, sighs were unambiguously identified by both visual and computer-assisted scoring; no difference was detected in direct comparisons between methods or observers so visual scoring was used. Female 8 week old mice (Nmbr^−/−, Grpr^−/−, or C57BL/6 as wild type control) were allowed to acclimate for 10 minutes in the chamber, and then the first fifteen recorded sighs were used to calculate the sigh rate. […] Rats were allowed to acclimate in the chamber for ˜1 hr, and then baseline sigh rate and respiratory frequency were calculated for the next 2 hrs. For hypoxic (8% O2) challenge, analysis was continued for 30 minutes under the hypoxic condition. For anesthetized rats, the trachea was cannulated and connected to a pneumotachograph (GM Instruments) to record airflow. A flow calibration was performed after every experiment along with a calculation of tidal volume (VT) by digital integration. To monitor diaphragm activity, wire electrodes (Cooner Wre) were implanted into the diaphragm and electromyogram (EMG) signal sampled at 2 kHz (Powerlab 16SP; AD Instruments). Signal was rectified and digitally integrated (time constant of 0.1) to obtain a moving average using LabChart Pro 8 (AD Instruments) and Igor Pro 6 (Data Matrix) software. Sighs were identified in the airflow measurements as above and validated by double peaks in the EMG recordings.
PreBötC injection of NMB and GRP agonists and antagonists. […]

Assay [8] addresses T2, NMBR (Mus musculus, UniProt O54799).
T2 construct: from tissue; host or cells: 550-μm transverse medullary slices with the preBötC, neonatal C57BL/6 mice (P0-5)
T2 sequence (O54799 1-390): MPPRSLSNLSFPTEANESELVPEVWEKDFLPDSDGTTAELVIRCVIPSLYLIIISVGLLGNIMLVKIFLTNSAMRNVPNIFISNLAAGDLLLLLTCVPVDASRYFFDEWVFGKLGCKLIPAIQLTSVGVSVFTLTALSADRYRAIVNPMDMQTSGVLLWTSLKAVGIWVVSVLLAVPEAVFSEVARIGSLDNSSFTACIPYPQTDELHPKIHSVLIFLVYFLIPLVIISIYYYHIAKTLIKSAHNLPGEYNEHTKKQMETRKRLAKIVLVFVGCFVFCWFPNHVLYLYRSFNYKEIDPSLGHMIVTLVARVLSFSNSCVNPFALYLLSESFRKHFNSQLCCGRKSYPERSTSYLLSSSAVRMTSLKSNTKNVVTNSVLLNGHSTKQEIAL
Put plainly: Doublets (in vitro sigh signature) in explanted preBötC brain slices, NMB effect. Format: cell-based. The following applies: for doublet frequency increase: neonatal mouse preBötC slices. The procedure: In vitro slice preparation, recording, and analysis. Rhythmic 550-μm-thick transverse medullary slices containing the preBötC and XII nerve from neonatal C57BL/6 mice (P0-5) were prepared as described previously (Kam et al., 2013). The medullary slice was cut in artificial cerebrospinal fluid (ACSF) containing (in mM): 124 NaCl, 3 KCl, 1.5 CaCl2, 1 MgSO4, 25 NaHCO3, 0.5 NaH2PO4, and 30 D-glucose, equilibrated with 95% O2 and 5% CO2 (4° C., pH=7.4). For recording, extracellular K+ was raised to 9 mM to replace excitatory afferent drive lost in the cutting process. Slices were perfused at 27° C. and 4 ml/min and allowed to equilibrate for 30 minutes. Respiratory activity reflecting suprathreshold action potential (AP) firing from populations of neurons was recorded as XII bursts from either XII nerve roots and as population activity directly from the preBötC using suction electrodes and a MultiClamp 700A or 700B (Molecular Devices, Sunnyvale, Calif., USA), filtered at 2-4 kHz and digitized at 10 kHz. Digitized data were analyzed off-line using custom procedures written for IgorPro (Wavemetrics, Portland, Oreg., USA). Activity was full-wave rectified and digitally integrated with a Paynter filter with a time constant of 20 ms with either custom built electronics or using custom procedures in MATLAB (Mathworks, Natick, Mass., USA). Burst detection and analysis of respiratory-related activity recorded in full-wave rectified XII output or preBötC population recordings were performed using custom software written in IgorPro. Burst parameters were normalized to the mode of the data in the baseline condition. Although there are several proposed definitions of sighs in slice preparations, here we used “doublets” (double-peaked bursts) as the in vitro signature of sighs because, in our preparations, doublets detected both in preBötC neural population activity measurements and cranial nerve XII output recordings shared the increased inspiratory and expiratory duration of sighs. […] All doublets were verified by visual inspection to exclude multipeaked bursts and two bursts that were too far apart. Measured doublet intervals were converted to a calculated per hour doublet rate.

Assay [9] concerns the target gastrin-releasing peptide receptor (GRPR) on rat preBotC neurons (rat) (UniProt P52500). The source holds these as a separate data set.
For assay [10], the target named is neuromedin B receptor (NMBR) on mouse preBotC neurons (mouse) (UniProt O54799).

On to NMBR antagonist BIM23042, for which, in assay [1], the basal sigh rate after bilateral preBotC injection in anesthetized rats was 50%.
On to “bombesin-saporin (saporin conjugated with bombesin)”, for which the basal sigh rate after ablation of receptor-expressing preBotC neurons in rats in assay [2] and in assay [3] was 95% in each case. In addition, the hypoxia-induced sigh rate (8% O2) five days after injection in rats in [4] and in assay [5] was 5.1 h⁻¹ in each case.
As to “saporin conjugated with a non-targeted peptide (blank SAP)”, the basal and hypoxia-induced sigh rate in control rats in [4] and in [5] was 140 h⁻¹ throughout.
In assay [6], “gastrin releasing peptide (GRP) neuropeptide” gave a doublets (in vitro signature of a sigh) in mouse preBotC slices of 1.7 fold.
neuromedin B [NMB]: in the assay with NMBR [7] (bilateral NMB injection 100 nl, anesthetized rat), the “change in respiratory rate (frequency, f)” value was “little change”. Also, the “sighing increased (fold)” value in the assay with NMBR [7] (bilateral microinjection 100 nl, anesthetized adult rats, n=5) was 6-17 fold. For the same substance, the “effect on sighing persisted after injection” value with NMBR [7] (bilateral microinjection 100 nl, effect peaked several minutes after injection) was 10 to 15 min. This substance also showed a doublet frequency increase in the assay with NMBR [8] (10 nM, p=0.005, n=7) of 1.7 fold. Also, in the assay with NMBR [8] (30 nM, p=0.003, n=7), the doublet frequency increase worked out at 2 fold. Also, in the assay with NMBR [8] (NMB on preBötC slices, p=0.2, n=7), the “overall frequency of bursts and doublets together” value is “unchanged”. Moreover, in the assay with NMBR [8] (preBötC slice, p<0.05, n=7), the “fraction of total events that are doublets” value is “increasing” and the “interval following a doublet” value is “decreasing”.
Regarding GRPR antagonist RC3095, the basal sigh rate after bilateral preBotC injection in anesthetized rats in assay [9] is 50%.
In assay [10], neuromedin B (NMB) neuropeptide came in with a doublet frequency (in vitro signature of a sigh) in mouse preBotC slices of 2 fold.
